US8637043B2, “Compositions useful as ligands for the formyl peptide receptor like 1 receptor and methods of use thereof” (Chemocentryx, Inc., priority 2001, dated 2014)
Where “and” joins values, the source holds several entries; their conditions need not be identical. Equal entries are not always repeated. Where two headings read alike, the source gives them in different places. Values belong to the molecule of their own block, whether it stands above or below them. Ends that are not written are not given here.

Key:
[1] = tested on: human monocytes; assay: Calcium flux in human monocytes; assay type: cell-based; settings: for calcium flux: human monocytes, Example 8; for calcium release: freshly prepared human monocytes, up to 250 nM
Method: (§1) Ca^2+ mobilization responses were performed using the intracellular ratiometric fluorescent dye, lndo-1. Cells were loaded with Indo-1/AM (3 μM; Molecular Probes, Eugene, Oreg.) in culture medium (45 min, 20° C., 10^7 cells/ml). After dye loading, cells were washed once with 10 ml PBS) and resuspended at 10^6 cell/ml in HBSS containing 1% FBS. Cytosolic [Ca^2+] release was determined using excitation at 350 nm using a Photon Technology International fluorimeter (excitation at 350 nm, ratioed dual emission at 400 and 490 nm).
The human recombinant chemokines, leukotactin, MlP-1α, three known CKβ8 variants CKβ8(1-99), CKβ8(25-99), CKβ8-1(1-116) and a novel NH2-terminal truncated form of CKβ8-1, CKβ8-1 (25-116) were obtained from R&D Systems (Minneapolis, Minn.). Human monocytes were generated from buffy coats (Stanford Blood Center, Palo Alto, Calif.) following a standard protocol. Briefly, PBMC were isolated by standard density gradient centrifugation (Ficoll-Paque-Plus, Pharmacia). Monocytes were purified using CD14 Microbeads (Miltenyi, Auburn, Calif.) magnetic positive selection. Human neutrophils were isolated from fresh peripheral blood from healthy individuals by gradient centrifugation on Ficoll-Hypaque (Hyclone, Calif.).
The activity of the CCL23 variants was tested on freshly prepared human monocytes and neutrophils using the calcium flux test described in Example 1.
Human monocytes were either generated from buffy coats (Stanford Blood Center, Palo Also, Calif.) or from fresh blood of healthy individuals following a standard protocol. Briefly, PBMC were isolated by a Ficoll-Paque gradient centrifugation (Ficoll-Paque-Plus, Pharmacia). Monocytes were purified by CD14 Microbeads (Miltenyi) magnetic positive selection. Human neutrophils were isolated from fresh blood by dextran sedimentation and gradient centrifugation Ficoll-Paque gradient centrifugation. All cells were washed and resuspended (1×10^7/ml) in RPMI medium with 10% FBS.
as §1, with “an” for “the”, “Indo-1.” for “lndo-1.”, “Probes (Eugene, Oreg.))” for “Probes, Eugene, Oreg.)”, “cells/mi).” for “cells/ml).”, “(10” for “with 10”

[2] = tested on: immature Dendritic Cells; assay: Calcium mobilization, immature dendritic cells; assay type: cell-based, human
Method: Human recombinant CKβ8-1(25-116) chemokine was obtained from R&D Systems (Minneapolis, Minn.). The peptide SHAAGtides SEQ ID NO:1 and SEQ ID NO:6 and a control protein (the reverse sequence of SEQ ID NO:1) were synthesized and HPLC-purified using routine techniques as described in Sambrook et al., 1989, and Ausubel et al., 1999.
Immature DCs were derived by culturing CD14+ monocytes in the presence of GM-CSF and IL4. Briefly, monocytes were cultured in a T-175 flask at 10^6 cells/ml in RPMI/10% FCS. Recombinant human GM-CSF and IL4 were added on day 0, 2, 4 and 6 to a final concentration of 1000 u/ml and 500 u/ml, respectively. Cells were harvested on day 7 as immature DCs and characterized for surface protein expression by FACS analysis. DC maturation was carried out by culturing day 6 immature DCs in macrophage-conditioned medium (MCM). Briefly, day 6 immature DCs were harvested by centrifugation and resuspended in MCM at 10^6 cells/ml. The medium was supplemented with 1000 u/ml of GM-CSF and 500 u/ml IL4. After three more days of culture, cells were harvested as mature DCs and characterized by surface protein expression flow cytometry.
as §1, with “an” for “the”, “Indo-1.” for “lndo-1.”, “Probes (Eugene, Oreg.))” for “Probes, Eugene, Oreg.)”, “cells/mi).” for “cells/ml).”, “(10” for “with 10”

[3] = tested on: human neutrophils; assay: Migration assay (ChemoTx), human neutrophils; assay type: cell-based; settings: 90 min, 100 nM
Method: Migration assays were performed on monocytes and neutrophils. Human monocytes and neutrophils (prepared as in Exampe 2) were harvested and resuspended in chemotaxis medium (CM). The CM consisted of Hank's buffered salt solution (Gibco, Mass.) containing CaCl2 (1 mM) and MgSO4 (1 mM) with added 0.1% BSA (Sigma, St. Louis, Mo.). The assays were performed in 96-well ChemoTx® microplates (Neuroprobe, Mass.). […] After incubation for 90 min (37° C., 100% humidity, 5% CO2), cells were removed from the upper surface of the filter by scraping. Cells that migrated into the lower chamber were quantified using the Quant cell proliferation assay kit (Molecular Probes, Oreg.).
The above peptides were prepared as in previous examples.

[4] = biological target: monocytes; assay: 125I-MIP-1α binding competition, monocytes; design: species or system human; settings: for IC50: Monocytes; for MIP-1α displacement on monocytes compared with HEK293-CCR1 cells: comparison in words
Method: The binding characteristics of CCL23 variants was compared in human CCR1 expressing cells. The ability of MIP-1α and the CCL23 variants CKβ8(1-99), CKβ8(25-99), CKβ8-1(1-116) and CKβ8-1(25-116) to compete with ^125I-MIP-1α binding was investigated in HEK293-CCR1 cells (prepared as in Example 1). The cells were incubated with ^125I-labeled MIP-1α (final conc. {dot over (˜)}0.05 nM) in the presence of unlabeled chemokine (3 hours at 4° C.: 25 mM HEPES, 140 mM NaCl, 1 mM CaCl2, 5 mM MgCl2 and 0.2% BSA, adjusted to pH 7.1). Reactions mixtures were aspirated onto PEI-treated GF/B glass filters using a cell harvester (Packard). The filters were washed twice (25 mM HEPES, 500 mM NaCl, 1 mM CaCl2, 5 mM MgCl2, adjusted to pH 7.1). Scintillant (MicroScint-10; 35 μl) was added to dried filters and the filiters counted in a Packard Topcount scintillation counter. Data were analyzed and plotted using Prism software (GraphPad Software, San Diego, Calif.).
Simiar binding competition tests were conducted on monocytes and neutrophils. These cells were prepared as in Example 2.

[5] = tested on: neutrophils; assay: Cross-desensitization with leukotactin, neutrophils; assay type: cell-based, human
Method: In cross-desensitization tests tests, cells were stimulated sequentially with leukotactin and then the chemokines CKβ8(1-99), CKβ8(25-99), CKβ8-1(1-116), and CKβ8-1(25-116). On HEK293-CCR1 transfectants (prepared as in Example 1), leukotactin induced similar patterns of receptor desensitization to all variants.
Similar receptor cross-desensitization tests were performed using both monocytes and neutrophils (prepared as in Example 2).

Molecule: MLWRRKIGPQMTLSHAAG [SEQ ID NO: 1]
calcium flux [1]: robust calcium flux
calcium flux [2]: partially active
migration of neutrophils [3]: produced migration

Molecule: MLWRRKIGPQMTLSHAAY [SEQ ID NO: 6]
calcium flux [1]: robust calcium flux
calcium flux [2]: partially active

B2: CKβ8(25-99): known truncated CKβ8 variant, human recombinant chemokine from R&D Systems (protein, listed as Homo sapiens)
chain: RFHATSADCCISYTPRSIPCSLLESYFETNSECSKPGVIFLTKKGRRFCANPSDKQVQVCMRMLKLDTRIKTRKN
IC50 [4]: 0.25 nM
calcium release [1]: slightly higher calcium stimulation
desensitization by leukotactin prestimulation [5]: inactive

Now from value to molecule, other results behind:

IC50 [4]: 55 nM
B1: CKβ8-1(1-116): alternatively spliced form of CKβ8, 116 amino acids, human recombinant chemokine (protein, listed as Homo sapiens)
chain: RVTKDAETEFMMSKLPLENPVLLDMLWRRKIGPQMTLSHAAGFHATSADCCISYTPRSIPCSLLESYFETNSECSKPGVIFLTKKGRRFCANPSDKQVQVCMRMLKLDTRIKTRKN
MIP-1α displacement on monocytes compared with HEK293-CCR1 cells [4]: higher MIP-1α displacement activities
calcium release [1]: poor activity
desensitization by leukotactin prestimulation [5]: inactive

IC50 [4]: 5 nM and 5.1 nM
maximal receptor stimulation compared with leukotactin ([1]; monocytes, 100 nM): at least two fold higher
B3: CKβ8-1(25-116): novel NH2-terminal truncated form of CKβ8-1, SEQ ID NO: 16, human recombinant chemokine (protein, listed as Homo sapiens)
chain: MLWRRKIGPQMTLSHAAGFHATSADCCISYTPRSIPCSLLESYFETNSECSKPGVIFLTKKGRRFCANPSDKQVQVCMRMLKLDTRIKTRKN
MIP-1α displacement on monocytes compared with HEK293-CCR1 cells [4]: higher MIP-1α displacement activities
MIP-1α displacement activity on monocytes versus HEK293-CCR1 cells ([4]; fold higher on monocytes): over 10 fold
calcium release [1]: unique calcium flux with extended calcium release
calcium flux [1]: robust calcium flux
calcium flux [2]: induces Ca^2+ release
calcium flux ([2]; listed as CKβ8-1 (25-116)): partially active
desensitization by leukotactin prestimulation [5]: did not desensitize
migration of neutrophils [3]: produced migration
migration of neutrophils ([3]; listed as CKβ8-1 (25-116)): robust response
